Source: patent publication US20070082380A1 (ARMAGEN TECHNOLOGIES, published 2007)

Target: T1, human insulin receptor extracellular domain (HIR ECD) (human, UniProt P06213 28-956, limits assumed)
T1 construct: extracellular domain
Experiment: competitive ligand binding assay, displacement of [125I] murine HIRMAb from plated HIR ECD, Scatchard analysis
Protocol: CHO cells permanently transfected with the HIR ECD were grown in serum free media (SFM), and the HIR ECD was purified with a wheat germ agglutinin affinity column.

B1: chimeric HIRMAb (chimeric monoclonal antibody to the human insulin receptor) (antibody, human IgG1, kappa)
heavy: not shown
light: DIQMTQSPSSLSASLGERVSLTCRASQDIGGNLYWLQQGPDGTIKRLIYATSSLDSGVPKRFSGSRSGSDYSLTISSLESEDFVDYYCLQYSSSPWTFGGATKMEIKRTVAAPSVFIFPPSDEQLKSGTASVVCLLNNFYPREAKVQWKVDNALQSGNSQESVTEQDSKDSTYSLSSTLTLSKADYEKHKVYACEVTHQGLSSPVTKSFNRGEC
notes: chimeric human IgG1/kappa
Ki: 0.63 nM
